In publication PMC9482650, “Quantitative fragmentomics allow affinity mapping of interactomes” (Nature Communications, 2022):

T1: NHERF3_1, Q5T2W1
T1 sequence (Q5T2W1 4-100, limits assumed, looked up): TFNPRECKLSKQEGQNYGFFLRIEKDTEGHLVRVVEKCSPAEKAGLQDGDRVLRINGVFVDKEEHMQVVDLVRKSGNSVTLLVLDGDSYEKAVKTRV

T2: LRRC7, Q96NW7
T2 sequence (Q96NW7 1440-1537, limits assumed, looked up): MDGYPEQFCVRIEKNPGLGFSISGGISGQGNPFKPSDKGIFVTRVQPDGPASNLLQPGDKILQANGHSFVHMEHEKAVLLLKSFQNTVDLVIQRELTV

T3: LIN7B, Q9HAP6
T3 sequence (Q9HAP6 88-185, limits assumed, looked up): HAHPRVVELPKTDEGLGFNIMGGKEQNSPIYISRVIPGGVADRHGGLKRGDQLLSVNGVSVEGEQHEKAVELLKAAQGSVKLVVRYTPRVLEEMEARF

T4: SNTG1, Q9NSN8
T4 sequence (Q9NSN8 52-150, limits assumed, looked up): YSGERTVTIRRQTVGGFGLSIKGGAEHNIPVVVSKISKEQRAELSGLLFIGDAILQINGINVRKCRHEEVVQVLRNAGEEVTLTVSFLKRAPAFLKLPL

T5: HTRA3, P83110
T5 sequence (P83110 354-453, limits assumed, looked up): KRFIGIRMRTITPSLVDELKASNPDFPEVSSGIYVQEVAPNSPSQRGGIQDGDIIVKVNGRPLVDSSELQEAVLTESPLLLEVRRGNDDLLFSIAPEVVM

T6: PCLO, Q9Y6V0
T6 sequence (Q9Y6V0 4491-4600, limits assumed, looked up): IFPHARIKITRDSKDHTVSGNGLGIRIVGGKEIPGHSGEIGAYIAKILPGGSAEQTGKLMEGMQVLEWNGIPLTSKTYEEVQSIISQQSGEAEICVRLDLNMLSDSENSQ

T7: CARD11, Q9BXL7
T7 sequence (Q9BXL7 662-765, limits assumed, looked up): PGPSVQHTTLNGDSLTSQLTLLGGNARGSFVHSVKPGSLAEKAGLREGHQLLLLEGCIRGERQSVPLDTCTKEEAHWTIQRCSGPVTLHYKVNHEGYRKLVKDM

T8: LNX2_2, Q8N448
T8 sequence (Q8N448 334-432, limits assumed, looked up): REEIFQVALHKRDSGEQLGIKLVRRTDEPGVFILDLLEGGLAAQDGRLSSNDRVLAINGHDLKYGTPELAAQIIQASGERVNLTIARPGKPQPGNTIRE

T9: NHERF3_3, Q5T2W1
T9 sequence (Q5T2W1 238-333, limits assumed, looked up): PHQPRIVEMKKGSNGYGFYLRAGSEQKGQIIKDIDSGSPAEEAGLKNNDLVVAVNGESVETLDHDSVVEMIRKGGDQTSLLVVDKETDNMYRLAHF


These binders were tested against T1, NHERF3_1, Q5T2W1 (assay: holdup assay). Details: plain residues with an end cap or a label only (N-terminal biotin on a linker: ado-ado).
Design: key: below the threshold = too weak to quantify, mostly under pKd 3.1 to 4
In the case of EDGESWEYQI [TRPV6, Q9H1D0], the pKd is reported as “below the threshold”. RQKEVRESKC [SCN8A, Q9UQD0] was tested, and the pKd was 4.71.

What follows are binders tested against NHERF4_1, Q86UT5-2 (assay: holdup assay). Details: plain residues with an end cap or a label only (N-terminal biotin on a linker: ado-ado).
Sequence of NHERF4_1, Q86UT5-2 (Q86UT5 other isoform, or with tags, fused parts or gaps): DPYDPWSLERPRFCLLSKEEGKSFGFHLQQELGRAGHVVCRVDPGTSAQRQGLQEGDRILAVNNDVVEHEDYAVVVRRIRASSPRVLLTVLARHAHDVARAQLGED
Design: key: below the threshold = too weak to quantify, mostly under pKd 3.1 to 4
With EDGESWEYQI [TRPV6, Q9H1D0] the pKd was “below the threshold”. Binder RQKEVRESKC [SCN8A, Q9UQD0] has a pKd of 3.91.

The binders below were run against IL16_3, Q14005 (assay: holdup assay). Details: plain residues with an end cap or a label only (N-terminal biotin on a linker: ado-ado).
Sequence of IL16_3, Q14005 (Q14005 1107-1207): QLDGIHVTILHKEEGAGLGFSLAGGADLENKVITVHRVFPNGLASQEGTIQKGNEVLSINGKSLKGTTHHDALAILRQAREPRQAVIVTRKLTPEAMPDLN
Design: key: below the threshold = too weak to quantify, mostly under pKd 3.1 to 4
For EDGESWEYQI [TRPV6, Q9H1D0], the pKd was “below the threshold”. With RQKEVRESKC [SCN8A, Q9UQD0] the pKd was “below the threshold”.

The binders below were run against LDB3, O75112 (assay: holdup assay). Details: plain residues with an end cap or a label only (N-terminal biotin on a linker: ado-ado).
Sequence of LDB3, O75112 (O75112 1-94): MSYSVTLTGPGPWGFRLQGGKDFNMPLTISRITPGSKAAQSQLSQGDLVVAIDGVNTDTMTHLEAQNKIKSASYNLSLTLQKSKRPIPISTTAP
Design: key: below the threshold = too weak to quantify, mostly under pKd 3.1 to 4
With EDGESWEYQI [TRPV6, Q9H1D0] the pKd was “below the threshold”. In the case of RQKEVRESKC [SCN8A, Q9UQD0], the pKd is reported as “below the threshold”.

What follows are binders tested against T2, LRRC7, Q96NW7 (assay: holdup assay). Details: plain residues with an end cap or a label only (N-terminal biotin on a linker: ado-ado).
Design: key: below the threshold = too weak to quantify, mostly under pKd 3.1 to 4
EDGESWEYQI [TRPV6, Q9H1D0] was tested, and the pKd was “below the threshold”. In the case of RQKEVRESKC [SCN8A, Q9UQD0], the pKd is reported as “below the threshold”.

Each binder was assayed against T3, LIN7B, Q9HAP6 (assay: holdup assay). Details: plain residues with an end cap or a label only (N-terminal biotin on a linker: ado-ado).
Design: key: below the threshold = too weak to quantify, mostly under pKd 3.1 to 4
Binder EDGESWEYQI [TRPV6, Q9H1D0] has a pKd of 3.59. RQKEVRESKC [SCN8A, Q9UQD0] gave a pKd of 3.78.

Each binder was assayed against LAP2, Q96RT1 (assay: holdup assay). Details: plain residues with an end cap or a label only (N-terminal biotin on a linker: ado-ado).
Sequence of LAP2, Q96RT1 (Q96RT1 other isoform, or with tags, fused parts or gaps): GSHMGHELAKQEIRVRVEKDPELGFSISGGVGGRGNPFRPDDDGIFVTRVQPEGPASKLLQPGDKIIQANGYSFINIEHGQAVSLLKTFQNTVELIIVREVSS
Design: key: below the threshold = too weak to quantify, mostly under pKd 3.1 to 4
In the case of EDGESWEYQI [TRPV6, Q9H1D0], the pKd is reported as “below the threshold”. For RQKEVRESKC [SCN8A, Q9UQD0], the pKd was “below the threshold”.

The binders below were run against Inadl_5, Q8NI35 (assay: holdup assay). Details: plain residues with an end cap or a label only (N-terminal biotin on a linker: ado-ado).
Sequence of Inadl_5, Q8NI35 (Q8NI35 673-780): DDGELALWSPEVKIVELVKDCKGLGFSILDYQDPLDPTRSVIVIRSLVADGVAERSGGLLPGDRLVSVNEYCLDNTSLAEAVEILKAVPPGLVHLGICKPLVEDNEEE
Design: key: below the threshold = too weak to quantify, mostly under pKd 3.1 to 4
With EDGESWEYQI [TRPV6, Q9H1D0] the pKd was “below the threshold”. For RQKEVRESKC [SCN8A, Q9UQD0], the pKd was “below the threshold”.

These binders were tested against T4, SNTG1, Q9NSN8 (assay: holdup assay). Details: plain residues with an end cap or a label only (N-terminal biotin on a linker: ado-ado).
Design: key: below the threshold = too weak to quantify, mostly under pKd 3.1 to 4
With EDGESWEYQI [TRPV6, Q9H1D0] the pKd was 3.82. RQKEVRESKC [SCN8A, Q9UQD0] was tested, and the pKd was 3.77.

What follows are binders tested against GRIP2_5, Q9C0E4 (assay: holdup assay). Details: plain residues with an end cap or a label only (N-terminal biotin on a linker: ado-ado).
Sequence of GRIP2_5, Q9C0E4 (Q9C0E4 544-642): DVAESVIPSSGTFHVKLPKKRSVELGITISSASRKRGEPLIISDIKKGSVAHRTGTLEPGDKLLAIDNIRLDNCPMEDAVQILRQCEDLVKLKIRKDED
Design: key: below the threshold = too weak to quantify, mostly under pKd 3.1 to 4
In the case of EDGESWEYQI [TRPV6, Q9H1D0], the pKd is reported as “below the threshold”. RQKEVRESKC [SCN8A, Q9UQD0] was tested, and the pKd was “below the threshold”.

What follows are binders tested against SCRIB_3, Q14160 (assay: holdup assay). Details: plain residues with an end cap or a label only (N-terminal biotin on a linker: ado-ado).
Sequence of SCRIB_3, Q14160 (Q14160 999-1103): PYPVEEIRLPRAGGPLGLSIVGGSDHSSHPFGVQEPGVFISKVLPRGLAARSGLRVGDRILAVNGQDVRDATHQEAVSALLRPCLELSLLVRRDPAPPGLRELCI
Design: key: below the threshold = too weak to quantify, mostly under pKd 3.1 to 4
EDGESWEYQI [TRPV6, Q9H1D0] showed a pKd of 4.11. RQKEVRESKC [SCN8A, Q9UQD0] was tested, and the pKd was 4.16.

Each binder was assayed against T5, HTRA3, P83110 (assay: holdup assay). Details: plain residues with an end cap or a label only (N-terminal biotin on a linker: ado-ado).
Design: key: below the threshold = too weak to quantify, mostly under pKd 3.1 to 4
With EDGESWEYQI [TRPV6, Q9H1D0] the pKd was “below the threshold”. With RQKEVRESKC [SCN8A, Q9UQD0] the pKd was 3.5.

These binders were tested against GOPC, Q9HD26 (assay: holdup assay). Details: plain residues with an end cap or a label only (N-terminal biotin on a linker: ado-ado).
Design: key: below the threshold = too weak to quantify, mostly under pKd 3.1 to 4
In the case of EDGESWEYQI [TRPV6, Q9H1D0], the pKd is reported as “below the threshold”. With RQKEVRESKC [SCN8A, Q9UQD0] the pKd was “below the threshold”.

These binders were tested against Inadl_10, Q8NI35 (assay: holdup assay). Details: plain residues with an end cap or a label only (N-terminal biotin on a linker: ado-ado).
Sequence of Inadl_10, Q8NI35 (Q8NI35 1673-1763): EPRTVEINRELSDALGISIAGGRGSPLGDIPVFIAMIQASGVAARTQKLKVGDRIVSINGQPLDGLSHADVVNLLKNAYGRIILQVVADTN
Design: key: below the threshold = too weak to quantify, mostly under pKd 3.1 to 4
In the case of EDGESWEYQI [TRPV6, Q9H1D0], the pKd is reported as “below the threshold”. In the case of RQKEVRESKC [SCN8A, Q9UQD0], the pKd is reported as “below the threshold”.

Each binder was assayed against GRID2IP_2, A4D2P6 (assay: holdup assay). Details: plain residues with an end cap or a label only (N-terminal biotin on a linker: ado-ado).
Sequence of GRID2IP_2, A4D2P6 (A4D2P6 272-370): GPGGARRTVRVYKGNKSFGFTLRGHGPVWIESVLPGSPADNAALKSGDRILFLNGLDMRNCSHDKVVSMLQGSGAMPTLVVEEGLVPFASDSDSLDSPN
Design: key: below the threshold = too weak to quantify, mostly under pKd 3.1 to 4
In the case of EDGESWEYQI [TRPV6, Q9H1D0], the pKd is reported as “below the threshold”. Work on RQKEVRESKC [SCN8A, Q9UQD0] yielded a pKd of 3.69.

Each binder was assayed against PICK1, Q9NRD5 (assay: holdup assay). Details: plain residues with an end cap or a label only (N-terminal biotin on a linker: ado-ado).
Sequence of PICK1, Q9NRD5 (Q9NRD5 17-115): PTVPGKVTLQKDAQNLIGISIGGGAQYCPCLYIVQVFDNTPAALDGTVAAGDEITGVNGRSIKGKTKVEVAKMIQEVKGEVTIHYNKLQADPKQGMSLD
Design: key: below the threshold = too weak to quantify, mostly under pKd 3.1 to 4
For EDGESWEYQI [TRPV6, Q9H1D0], the pKd was “below the threshold”. In the case of RQKEVRESKC [SCN8A, Q9UQD0], the pKd is reported as 4.18.

These binders were tested against SCRIB_2, Q14160 (assay: holdup assay). Details: plain residues with an end cap or a label only (N-terminal biotin on a linker: ado-ado).
Sequence of SCRIB_2, Q14160 (Q14160 857-960): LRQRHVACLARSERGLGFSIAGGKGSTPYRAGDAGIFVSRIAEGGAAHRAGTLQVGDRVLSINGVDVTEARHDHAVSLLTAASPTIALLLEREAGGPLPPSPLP
Design: key: below the threshold = too weak to quantify, mostly under pKd 3.1 to 4
In the case of EDGESWEYQI [TRPV6, Q9H1D0], the pKd is reported as “below the threshold”. RQKEVRESKC [SCN8A, Q9UQD0] showed a pKd of 3.82.

These binders were tested against T6, PCLO, Q9Y6V0 (assay: holdup assay). Details: plain residues with an end cap or a label only (N-terminal biotin on a linker: ado-ado).
Design: key: below the threshold = too weak to quantify, mostly under pKd 3.1 to 4
EDGESWEYQI [TRPV6, Q9H1D0] was tested, and the pKd was “below the threshold”. With RQKEVRESKC [SCN8A, Q9UQD0] the pKd was “below the threshold”.

The binders below were run against NHERF4_2, Q86UT5 (assay: holdup assay). Details: plain residues with an end cap or a label only (N-terminal biotin on a linker: ado-ado).
Sequence of NHERF4_2, Q86UT5 (Q86UT5 220-308): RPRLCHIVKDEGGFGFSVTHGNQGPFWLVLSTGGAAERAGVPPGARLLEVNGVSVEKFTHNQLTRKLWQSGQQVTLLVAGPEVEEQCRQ
Design: key: below the threshold = too weak to quantify, mostly under pKd 3.1 to 4
For EDGESWEYQI [TRPV6, Q9H1D0], the pKd was “below the threshold”. With RQKEVRESKC [SCN8A, Q9UQD0] the pKd was “below the threshold”.

The binders below were run against MAGI2_4, Q86UL8 (assay: holdup assay). Details: plain residues with an end cap or a label only (N-terminal biotin on a linker: ado-ado).
Sequence of MAGI2_4, Q86UL8 (Q86UL8 772-865): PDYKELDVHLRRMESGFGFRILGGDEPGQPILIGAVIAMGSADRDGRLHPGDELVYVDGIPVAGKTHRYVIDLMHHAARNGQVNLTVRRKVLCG
Design: key: below the threshold = too weak to quantify, mostly under pKd 3.1 to 4
With EDGESWEYQI [TRPV6, Q9H1D0] the pKd was “below the threshold”. In the case of RQKEVRESKC [SCN8A, Q9UQD0], the pKd is reported as “below the threshold”.

What follows are binders tested against GRIP2_7, Q9C0E4 (assay: holdup assay). Details: plain residues with an end cap or a label only (N-terminal biotin on a linker: ado-ado).
Sequence of GRIP2_7, Q9C0E4 (Q9C0E4 934-1023): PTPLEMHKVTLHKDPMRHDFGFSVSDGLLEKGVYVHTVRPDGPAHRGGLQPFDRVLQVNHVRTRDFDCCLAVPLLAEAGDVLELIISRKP
Design: key: below the threshold = too weak to quantify, mostly under pKd 3.1 to 4
Binder EDGESWEYQI [TRPV6, Q9H1D0] has a pKd of 3.61. With RQKEVRESKC [SCN8A, Q9UQD0] the pKd was “below the threshold”.

These binders were tested against SNX27, Q96L92 (assay: holdup assay). Details: plain residues with an end cap or a label only (N-terminal biotin on a linker: ado-ado).
Design: key: below the threshold = too weak to quantify, mostly under pKd 3.1 to 4
With EDGESWEYQI [TRPV6, Q9H1D0] the pKd was “below the threshold”. In the case of RQKEVRESKC [SCN8A, Q9UQD0], the pKd is reported as 5.19.

These binders were tested against T7, CARD11, Q9BXL7 (assay: holdup assay). Details: plain residues with an end cap or a label only (N-terminal biotin on a linker: ado-ado).
Design: key: below the threshold = too weak to quantify, mostly under pKd 3.1 to 4
For EDGESWEYQI [TRPV6, Q9H1D0], the pKd was “below the threshold”. For RQKEVRESKC [SCN8A, Q9UQD0], the pKd was “below the threshold”.

What follows are binders tested against DLG4_3, P78352 (assay: holdup assay). Details: plain residues with an end cap or a label only (N-terminal biotin on a linker: ado-ado).
Sequence of DLG4_3, P78352 (P78352 306-403): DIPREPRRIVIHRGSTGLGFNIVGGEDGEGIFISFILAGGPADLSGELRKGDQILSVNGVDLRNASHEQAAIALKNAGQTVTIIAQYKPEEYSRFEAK
Design: key: below the threshold = too weak to quantify, mostly under pKd 3.1 to 4
In the case of EDGESWEYQI [TRPV6, Q9H1D0], the pKd is reported as “below the threshold”. RQKEVRESKC [SCN8A, Q9UQD0] gave a pKd of 4.6.

The binders below were run against DLG5_1, Q8TDM6 (assay: holdup assay). Details: plain residues with an end cap or a label only (N-terminal biotin on a linker: ado-ado).
Sequence of DLG5_1, Q8TDM6 (Q8TDM6 617-713): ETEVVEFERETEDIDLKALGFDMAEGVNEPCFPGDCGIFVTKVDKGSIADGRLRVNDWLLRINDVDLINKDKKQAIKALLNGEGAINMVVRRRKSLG
Design: key: below the threshold = too weak to quantify, mostly under pKd 3.1 to 4
In the case of EDGESWEYQI [TRPV6, Q9H1D0], the pKd is reported as “below the threshold”. With RQKEVRESKC [SCN8A, Q9UQD0] the pKd was “below the threshold”.

Each binder was assayed against T8, LNX2_2, Q8N448 (assay: holdup assay). Details: plain residues with an end cap or a label only (N-terminal biotin on a linker: ado-ado).
Design: key: below the threshold = too weak to quantify, mostly under pKd 3.1 to 4
With EDGESWEYQI [TRPV6, Q9H1D0] the pKd was “below the threshold”. For RQKEVRESKC [SCN8A, Q9UQD0], the pKd was “below the threshold”.

What follows are binders tested against T9, NHERF3_3, Q5T2W1 (assay: holdup assay). Details: plain residues with an end cap or a label only (N-terminal biotin on a linker: ado-ado).
Design: key: below the threshold = too weak to quantify, mostly under pKd 3.1 to 4
With EDGESWEYQI [TRPV6, Q9H1D0] the pKd was “below the threshold”. For RQKEVRESKC [SCN8A, Q9UQD0], the pKd was “below the threshold”.

These binders were tested against TJP2_1, Q9UDY2 (assay: holdup assay). Details: plain residues with an end cap or a label only (N-terminal biotin on a linker: ado-ado).
Sequence of TJP2_1, Q9UDY2 (Q9UDY2 24-128): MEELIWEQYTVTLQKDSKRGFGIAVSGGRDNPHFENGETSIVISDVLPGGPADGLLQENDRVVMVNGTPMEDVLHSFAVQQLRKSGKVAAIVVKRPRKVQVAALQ
Design: key: below the threshold = too weak to quantify, mostly under pKd 3.1 to 4
EDGESWEYQI [TRPV6, Q9H1D0] was tested, and the pKd was “below the threshold”. For RQKEVRESKC [SCN8A, Q9UQD0], the pKd was “below the threshold”.
